# Experimental data taken from patent publication US20190359712A1 (Daiichi Sankyo, published 2019).
# Legend:
# [1] = target: T1, CD3 immobilized on a sensor chip (Example 7)-1-2); assay: SPR (BIAcore T-200), CD3 immobilized, scFv injected at five concentrations; concentration giving 1/2 Rmax
# T1 construct: the text says only 'CD3 immobilized on a sensor chip'; also called human CD3
# Method: Five different concentrations of the scFv were injected into CD3 immobilized on a sensor chip. Rmax was estimated from the resulting response, and the antibody concentration that reached 1/2 thereof was defined as the dissociation constant of the scFv for CD3.
# [2] = target: T2, human CD3 on human PBMC (human, UniProt P07766 23-207); assay: flow cytometry on human PBMC, Penta-His Alexa Fluor 488 detection (rMFI)
# T2 construct: Native CD3 complex on T cells in PBMC; the other chains of the complex are native; also called human CD3 (PBMC)
# Method: Commercially available human PBMC (Cellular Technology Ltd. (CTL)) was adjusted to an appropriate concentration with PBS containing 5% FBS. LIVE/DEAD Fixable Near-IR Dead Cell Stain Kit (Thermo Fisher Scientific Inc.) and an anti-CD19 antibody (Beckman Coulter Inc.) were added to the cells, which were then left standing at 4° C. for 30 minutes. The cells were washed twice with PBS containing 5% FBS, then adjusted to a concentration of 1×10⁶ cells/mL with PBS containing 5% FBS, added at a concentration of 100 μL/well to a 96-well U-bottomed microplate, and centrifuged to remove a supernatant. […] The cells were washed twice with PBS containing 5% FBS. Then, Penta-His Alexa Fluor 488 (Qiagen N.V.) diluted with PBS containing 5% FBS was added at a concentration of 30 μL/well, and the plate was left standing at 4° C. for 30 minutes. The cells were washed twice with PBS containing 5% FBS and then resuspended in PBS containing 5% FBS, followed by detection using a flow cytometer (FACSCanto™ II; Becton, Dickinson and Company). The data was analyzed using Flowjo (Tree Star Inc.). The mean fluorescence intensity (MFI) of Alexa Fluor 488 in a fraction free of dead cells and CD19-positive cells was calculated. The MFI value of the scFv-unsupplemented sample was subtracted from the MFI value of the scFv-supplemented sample to calculate a relative value of MFI (rMFI).
# [3] = target: T3, cynomolgus monkey CD3 on cynomolgus monkey PBMC or T cell line HSC-F (cynomolgus monkey, UniProt Q95LI5 22-198); assay: flow cytometry on cynomolgus monkey PBMC
# T3 construct: whole, on cells; Native CD3 complex on monkey T cells; also called cynomolgus monkey CD3 (PBMC); cynomolgus monkey CD3 antigen
# [4] = target: T2, human CD3 on human PBMC; assay: flow cytometry on human PBMC
# T3 sequence (Q95LI5 22-198): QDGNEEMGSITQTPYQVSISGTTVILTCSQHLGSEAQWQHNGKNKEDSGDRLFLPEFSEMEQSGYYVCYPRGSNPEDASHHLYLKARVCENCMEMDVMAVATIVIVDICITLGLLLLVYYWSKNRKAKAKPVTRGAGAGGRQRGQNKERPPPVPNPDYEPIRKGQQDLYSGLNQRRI
Binder,Kd [1],binding result [2],binding result [3],binding result [4]
C3E-7035 (humanized anti-CD3 scFv) (scFv) scFv: GEVQLVESGGGLVQPGGSLRLSCAASGVTFNYYGMSWIRQAPGKGLEWVASITNSGGRIYYPDSVKGRFTISRENTQKTLYLQMNSLRAEDTAVYYCTLDGRDGWVAYWGQGTLVTVSSGGGGSGGGGSGGGGSMAQAVLTQPSSVSGVPGQRVTISCKRNTGNIGSNYVNWYQQLPGTAPKLLIYRDDKRPSGVPDRFSGSKSGTSASLAITGFQAEDEADYYCQSYSSGFIFGGGTKLTVLGAAAGAGGDYKDDDDKGAAAHHHHHH,22 nM,binds,binds,–
"C3E-7085 (CDR modified humanized anti-CD3 scFv) (scFv, C3E-7036 with arginine for asparagine at position 53 of the VH; the change is already in the entry) scFv: GEVQLVESGGGLVQPGGSLRLSCAASGVTFNYYGMSWIRQAPGKGLEWVASITRSGGRIYYPDSVKGRFTISRENTQKTLYLQMNSLRAEDTAVYYCTLDGRDGWVAYWGQGTLVTVSSGGGGSGGGGSGGGGSNFMLTQPSSVSGVPGQRVTISCTGNTGNIGSNYVNWYQQLPGTAPKLLIYRDDKRPSGVPDRFSGSKSGTSASLAITGFQAEDEADYYCQSYSSGFIFGGGTKLTVLGAAAGAGGDYKDDDDKGAAAHHHHHH",–,–,binds,binds
C3E-3007 scFv (humanized OKT3 scFv) (scFv) scFv: QVQLVQSGAESKKPGASVKVSCKASGYTFTRYTMHWVRQAPGQGLEWMGYINPSRGYTNYNQKFKDRVTITADKSTSTAYMELSSLRSEDTAVYYCARYYDDHYCLDYWGQGTLVTVSSGGGGSGGGGSGGGGSQIQMTQSPSSLAVSLGERATITCSASSSVSYMNWYQQKPGKAPKRWIYDTSKLASGVPDRFSGSGSGTDFTLTISSLQAEDVATYYCQQWSSNPFTFGQGTKVEIKRGASAAAGSGGDYKDDDDKGAAAHHHHHH,400 nM,binds,–,–
"C3E-7078 (CDR modified humanized anti-CD3 scFv) (scFv, the change is already in the entry) scFv: GEVQLVESGGGLVQPGGSLRLSCAASGVTFNYYGMSWIRQAPGKGLEWVASITRSGGRIYYPDSVKGRFTISRENTQKTLYLQMNSLRAEDTAVYYCTLDGRDGWVAYWGQGTLVTVSSGGGGSGGGGSGGGGSNFMLTQPHSVSESPGKTVTISCKRNTGNIGSNYVNWYQQHEGSSPTTIIYRDDKRPDGVSDRFSGSIDRSSKSASLTISNLKTEDEADYFCQSYSSGFIFGGGTKLTVLGAAAGAGGDYKDDDDKGAAAHHHHHH",–,–,binds,binds
"C3E-7095 (CDR modified humanized anti-CD3 scFv) (scFv, C3E-7079 with alanine for aspartic acid at position 52 of the VL; the change is already in the entry) scFv: GEVQLVESGGGLVQPGGSLRLSCAASGVTFNYYGMSWIRQAPGKGLEWVASITSSGGRIYYPDSVKGRFTISRENTQKTLYLQMNSLRAEDTAVYYCTLDGRDGWVAYWGQGTLVTVSSGGGGSGGGGSGGGGSNFMLTQPHSVSESPGKTVTISCKRNTGNIGSNYVNWYQQHEGSSPTTIIYRADKRPDGVSDRFSGSIDRSSKSASLTISNLKTEDEADYFCQSYSSGFIFGGGTKLTVLGAAAGAGGDYKDDDDKGAAAHHHHHH",–,–,binds,binds
"C3E-7094 (CDR modified humanized anti-CD3 scFv) (scFv, C3E-7079 with serine for aspartic acid at position 52 of the VL; the change is already in the entry) scFv: GEVQLVESGGGLVQPGGSLRLSCAASGVTFNYYGMSWIRQAPGKGLEWVASITSSGGRIYYPDSVKGRFTISRENTQKTLYLQMNSLRAEDTAVYYCTLDGRDGWVAYWGQGTLVTVSSGGGGSGGGGSGGGGSNFMLTQPHSVSESPGKTVTISCKRNTGNIGSNYVNWYQQHEGSSPTTIIYRSDKRPDGVSDRFSGSIDRSSKSASLTISNLKTEDEADYFCQSYSSGFIFGGGTKLTVLGAAAGAGGDYKDDDDKGAAAHHHHHH",–,–,binds,binds
"C3E-7089 (CDR modified humanized anti-CD3 scFv) (scFv, C3E-7078 with serine for aspartic acid at position 52 of the VL; the change is already in the entry) scFv: GEVQLVESGGGLVQPGGSLRLSCAASGVTFNYYGMSWIRQAPGKGLEWVASITRSGGRIYYPDSVKGRFTISRENTQKTLYLQMNSLRAEDTAVYYCTLDGRDGWVAYWGQGTLVTVSSGGGGSGGGGSGGGGSNFMLTQPHSVSESPGKTVTISCKRNTGNIGSNYVNWYQQHEGSSPTTIIYRSDKRPDGVSDRFSGSIDRSSKSASLTISNLKTEDEADYFCQSYSSGFIFGGGTKLTVLGAAAGAGGDYKDDDDKGAAAHHHHHH",–,–,binds,binds
"C3E-7086 (CDR modified humanized anti-CD3 scFv) (scFv, C3E-7078 with glycine for aspartic acid at position 52 of the VL; the change is already in the entry) scFv: GEVQLVESGGGLVQPGGSLRLSCAASGVTFNYYGMSWIRQAPGKGLEWVASITRSGGRIYYPDSVKGRFTISRENTQKTLYLQMNSLRAEDTAVYYCTLDGRDGWVAYWGQGTLVTVSSGGGGSGGGGSGGGGSNFMLTQPHSVSESPGKTVTISCKRNTGNIGSNYVNWYQQHEGSSPTTIIYRGDKRPDGVSDRFSGSIDRSSKSASLTISNLKTEDEADYFCQSYSSGFIFGGGTKLTVLGAAAGAGGDYKDDDDKGAAAHHHHHH",–,–,binds,binds
"C3E-7091 (CDR modified humanized anti-CD3 scFv) (scFv, C3E-7079 with glycine for aspartic acid at position 52 of the VL; the change is already in the entry) scFv: GEVQLVESGGGLVQPGGSLRLSCAASGVTFNYYGMSWIRQAPGKGLEWVASITSSGGRIYYPDSVKGRFTISRENTQKTLYLQMNSLRAEDTAVYYCTLDGRDGWVAYWGQGTLVTVSSGGGGSGGGGSGGGGSNFMLTQPHSVSESPGKTVTISCKRNTGNIGSNYVNWYQQHEGSSPTTIIYRGDKRPDGVSDRFSGSIDRSSKSASLTISNLKTEDEADYFCQSYSSGFIFGGGTKLTVLGAAAGAGGDYKDDDDKGAAAHHHHHH",–,–,binds,binds
"C3E-7087 (CDR modified humanized anti-CD3 scFv) (scFv, C3E-7078 with glutamine for aspartic acid at position 52 of the VL; the change is already in the entry) scFv: GEVQLVESGGGLVQPGGSLRLSCAASGVTFNYYGMSWIRQAPGKGLEWVASITRSGGRIYYPDSVKGRFTISRENTQKTLYLQMNSLRAEDTAVYYCTLDGRDGWVAYWGQGTLVTVSSGGGGSGGGGSGGGGSNFMLTQPHSVSESPGKTVTISCKRNTGNIGSNYVNWYQQHEGSSPTTIIYRQDKRPDGVSDRFSGSIDRSSKSASLTISNLKTEDEADYFCQSYSSGFIFGGGTKLTVLGAAAGAGGDYKDDDDKGAAAHHHHHH",–,–,binds,binds
"C3E-7090 (CDR modified humanized anti-CD3 scFv) (scFv, C3E-7078 with alanine for aspartic acid at position 52 of the VL; the change is already in the entry) scFv: GEVQLVESGGGLVQPGGSLRLSCAASGVTFNYYGMSWIRQAPGKGLEWVASITRSGGRIYYPDSVKGRFTISRENTQKTLYLQMNSLRAEDTAVYYCTLDGRDGWVAYWGQGTLVTVSSGGGGSGGGGSGGGGSNFMLTQPHSVSESPGKTVTISCKRNTGNIGSNYVNWYQQHEGSSPTTIIYRADKRPDGVSDRFSGSIDRSSKSASLTISNLKTEDEADYFCQSYSSGFIFGGGTKLTVLGAAAGAGGDYKDDDDKGAAAHHHHHH",–,–,binds,binds
"C3E-7079 (CDR modified humanized anti-CD3 scFv) (scFv, the change is already in the entry) scFv: GEVQLVESGGGLVQPGGSLRLSCAASGVTFNYYGMSWIRQAPGKGLEWVASITSSGGRIYYPDSVKGRFTISRENTQKTLYLQMNSLRAEDTAVYYCTLDGRDGWVAYWGQGTLVTVSSGGGGSGGGGSGGGGSNFMLTQPHSVSESPGKTVTISCKRNTGNIGSNYVNWYQQHEGSSPTTIIYRDDKRPDGVSDRFSGSIDRSSKSASLTISNLKTEDEADYFCQSYSSGFIFGGGTKLTVLGAAAGAGGDYKDDDDKGAAAHHHHHH",–,–,binds,binds
"C3E-7093 (CDR modified humanized anti-CD3 scFv) (scFv, C3E-7079 with asparagine for aspartic acid at position 52 of the VL; the change is already in the entry) scFv: GEVQLVESGGGLVQPGGSLRLSCAASGVTFNYYGMSWIRQAPGKGLEWVASITSSGGRIYYPDSVKGRFTISRENTQKTLYLQMNSLRAEDTAVYYCTLDGRDGWVAYWGQGTLVTVSSGGGGSGGGGSGGGGSNFMLTQPHSVSESPGKTVTISCKRNTGNIGSNYVNWYQQHEGSSPTTIIYRNDKRPDGVSDRFSGSIDRSSKSASLTISNLKTEDEADYFCQSYSSGFIFGGGTKLTVLGAAAGAGGDYKDDDDKGAAAHHHHHH",–,–,binds,binds
"C3E-7088 (CDR modified humanized anti-CD3 scFv) (scFv, C3E-7078 with asparagine for aspartic acid at position 52 of the VL; the change is already in the entry) scFv: GEVQLVESGGGLVQPGGSLRLSCAASGVTFNYYGMSWIRQAPGKGLEWVASITRSGGRIYYPDSVKGRFTISRENTQKTLYLQMNSLRAEDTAVYYCTLDGRDGWVAYWGQGTLVTVSSGGGGSGGGGSGGGGSNFMLTQPHSVSESPGKTVTISCKRNTGNIGSNYVNWYQQHEGSSPTTIIYRNDKRPDGVSDRFSGSIDRSSKSASLTISNLKTEDEADYFCQSYSSGFIFGGGTKLTVLGAAAGAGGDYKDDDDKGAAAHHHHHH",–,–,binds,binds
"C3E-7092 (CDR modified humanized anti-CD3 scFv) (scFv, C3E-7079 with glutamine for aspartic acid at position 52 of the VL; the change is already in the entry) scFv: GEVQLVESGGGLVQPGGSLRLSCAASGVTFNYYGMSWIRQAPGKGLEWVASITSSGGRIYYPDSVKGRFTISRENTQKTLYLQMNSLRAEDTAVYYCTLDGRDGWVAYWGQGTLVTVSSGGGGSGGGGSGGGGSNFMLTQPHSVSESPGKTVTISCKRNTGNIGSNYVNWYQQHEGSSPTTIIYRQDKRPDGVSDRFSGSIDRSSKSASLTISNLKTEDEADYFCQSYSSGFIFGGGTKLTVLGAAAGAGGDYKDDDDKGAAAHHHHHH",–,–,binds,binds
